Sequences and labels used below:
T1: N(A2B2)A-avi-His (biotinylated at the avi tag)
T1 construct: also called biotinylated N(A2B2)A-avi-His
T1 chain: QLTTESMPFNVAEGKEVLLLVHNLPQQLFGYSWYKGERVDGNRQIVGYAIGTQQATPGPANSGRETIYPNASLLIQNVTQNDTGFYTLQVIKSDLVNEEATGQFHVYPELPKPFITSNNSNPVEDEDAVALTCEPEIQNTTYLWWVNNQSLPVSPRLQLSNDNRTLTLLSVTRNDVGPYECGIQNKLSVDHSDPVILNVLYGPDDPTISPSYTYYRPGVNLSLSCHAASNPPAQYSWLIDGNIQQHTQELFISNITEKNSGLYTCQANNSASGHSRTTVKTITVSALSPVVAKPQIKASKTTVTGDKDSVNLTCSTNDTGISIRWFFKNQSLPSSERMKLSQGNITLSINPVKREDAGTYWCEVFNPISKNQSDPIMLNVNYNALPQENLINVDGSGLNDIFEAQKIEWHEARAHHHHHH

T2: Hu N(A2-B2)A-avi-His (human, biotinylated at the avi tag (Example 2.2))
T2 construct: also called hu N(A2-B2)A-avi-His B; CEACAM5-based antigen
T2 chain: T1 chain

B1: A5H1EL1D Fab (phage display format, parental clone) (Fab, V domains shown)
VH: EVQLLESGGGLVQPGGSLRLSCAASGFTFTDYYMNWVRQAPGKGLEWLGFIGNKANAYTTEYSASVKGRFTISRDKSKNTLYLQMNSLRAEDTATYYCTRDRGLRFYFDYWGQGTTVTVSS
VL: EIVLTQSPATLSLSPGERATLSCRASSSVTYIHWYQQKPGQAPRSWIYATSNLASGIPARFSGSGSGTDFTLTISSLEPEDFAVYYCQHWSSKPPTFGQGTKLEIK
notes: Fab from E. coli (bacterial supernatant or IMAC-purified), Flag tag
B2: Fab derived from P1AE2164 (Fab, V domains shown)
VH: B1 VH with A57G
VL: B1 VL with E1Q, I2T, Q41S, A42S, R44K, F70Y
notes: Fab; also called P1AE4135
B3: Fab derived from P1AE2182 (Fab, V domains shown)
VH: B1 VH with L48V, A57G, T95V, T99A
VL: B1 VL
notes: Fab; also called P1AE4143
B4: Fab derived from P1AE2176 (Fab, V domains shown)
VH: B1 VH with L48V, A57G, K76N, T95V
VL: B1 VL with Q41S, A42S, R44K
notes: Fab; also called P1AE4139
B5: Fab derived from P1AE2165 (Fab, V domains shown)
VH: B1 VH with A57G
VL: B1 VL with E1Q, I2T, S45L, W46L
notes: Fab; also called P1AE4136
B6: Fab derived from P1AE2181 (Fab, V domains shown)
VH: B1 VH with L48V, A57G, T95V, T99A
VL: B1 VL with Q41S, A42S, R44K
notes: Fab; also called P1AE4142
B7: Fab derived from P1AE2177 (Fab, V domains shown)
VH: B1 VH with L48V, A57G, K76N, T95V
VL: B1 VL
notes: Fab; also called P1AE4140
B8: Fab derived from P1AE2167 (Fab, V domains shown)
VH: B1 VH with A57G
VL: B1 VL
notes: Fab; also called P1AE4138
B9: Fab derived from P1AE2179 (Fab, V domains shown)
VH: B1 VH with L48V, A57G, T95V, T99A
VL: B1 VL with E1Q, I2T, Q41S, A42S, R44K, F70Y
notes: Fab; also called P1AE4141
B10: CEA (A5H1EL1D)-CD28 (SA_Variant 29) 1+1 format (Molecule 11D) (bispecific antibody, human IgG1, kappa, L234A L235A)
heavy 1: EIVLTQSPATLSLSPGERATLSCRASSSVTYIHWYQQKPGQAPRSWIYATSNLASGIPARFSGSGSGTDFTLTISSLEPEDFAVYYCQHWSSKPPTFGQGTKLEIKSSASTKGPSVFPLAPSSKSTSGGTAALGCLVKDYFPEPVTVSWNSGALTSGVHTFPAVLQSSGLYSLSSVVTVPSSSLGTQTYICNVNHKPSNTKVDKKVEPKSCDKTHTCPPCPAPEAAGGPSVFLFPPKPKDTLMISRTPEVTCVVVDVSHEDPEVKFNWYVDGVEVHNAKTKPREEQYNSTYRVVSVLTVLHQDWLNGKEYKCKVSNKALGAPIEKTISKAKGQPREPQVCTLPPSRDELTKNQVSLSCAVKGFYPSDIAVEWESNGQPENNYKTTPPVLDSDGSFFLVSKLTVDKSRWQQGNVFSCSVMHEALHNHYTQKSLSLSP
light 1: EVQLLESGGGLVQPGGSLRLSCAASGFTFTDYYMNWVRQAPGKGLEWLGFIGNKANAYTTEYSASVKGRFTISRDKSKNTLYLQMNSLRAEDTATYYCTRDRGLRFYFDYWGQGTTVTVSSASVAAPSVFIFPPSDEQLKSGTASVVCLLNNFYPREAKVQWKVDNALQSGNSQESVTEQDSKDSTYSLSSTLTLSKADYEKHKVYACEVTHQGLSSPVTKSFNRGEC
heavy 2: not shown
light 2: not shown
notes: huIgG1 PG-LALA CrossFab; also called P1AE4776
B11: CEA (A5H1EL1D)-CD28 (SA_Variant 8) 1+1 format (Molecule 11B) (bispecific antibody, human IgG1, kappa, L234A L235A)
heavy 1: B10 heavy 1
light 1: B10 light 1
heavy 2: not shown
light 2: not shown
notes: huIgG1 PG-LALA CrossFab; also called P1AE4774
B12: CD28(SA)_variant_12 (antibody, human IgG1, kappa, L234A L235A)
heavy: not shown
light: DIQMTQSPSSLSASVGDRVTITCRASQNIYVWLNWYQQKPGKAPKLLIYKASNLYSGVPSRFSGSRSGTDFTLTISSLQPEDFATYYCQQGQTYPYTFGQGTKLEIKRTVAAPSVFIFPPSDRKLKSGTASVVCLLNNFYPREAKVQWKVDNALQSGNSQESVTEQDSKDSTYSLSSTLTLSKADYEKHKVYACEVTHQGLSSPVTKSFNRGEC
chain: DKTHTCPPCPAPEAAGGPSVFLFPPKPKDTLMISRTPEVTCVVVDVSHEDPEVKFNWYVDGVEVHNAKTKPREEQYNSTYRVVSVLTVLHQDWLNGKEYKCKVSNKALGAPIEKTISKAKGQPREPQVCTLPPSRDELTKNQVSLSCAVKGFYPSDIAVEWESNGQPENNYKTTPPVLDSDGSFFLVSKLTVDKSRWQQGNVFSCSVMHEALHNRFTQKSLSLSP
notes: monovalent one-armed huIgG1 PG-LALA; from supernatant; also called P1AE3068
B13: CD28(SA)_variant_13 (antibody, human IgG1, kappa, L234A L235A)
heavy: not shown
light: not shown
chain: B12 chain
notes: monovalent one-armed huIgG1 PG-LALA; from supernatant; also called P1AE3069
B14: CD28(SA)_variant_16 (antibody, human IgG1, kappa, L234A L235A)
heavy: not shown
light: not shown
chain: B12 chain
notes: monovalent one-armed huIgG1 PG-LALA; from supernatant; also called P1AE3072
B15: CD28(SA)_variant_17 (antibody, human IgG1, kappa, L234A L235A)
heavy: not shown
light: not shown
chain: B12 chain
notes: monovalent one-armed huIgG1 PG-LALA; from supernatant; also called P1AE3073
B16: CD28(SA)_variant_19 (antibody, human IgG1, kappa, L234A L235A)
heavy: not shown
light: not shown
chain: B12 chain
notes: monovalent one-armed huIgG1 PG-LALA; from supernatant; also called P1AE3075
B17: CD28(SA)_variant_15 (antibody, human IgG1, kappa, L234A L235A)
heavy: not shown
light: not shown
chain: B12 chain
notes: monovalent one-armed huIgG1 PG-LALA; from supernatant; also called P1AE3071
B18: CD28(SA)_variant_29 (antibody, human IgG1, kappa, L234A L235A)
heavy: not shown
light: not shown
chain: B12 chain
notes: monovalent one-armed huIgG1 PG-LALA; from supernatant; also called P1AE3085
B19: CD28(SA)_variant_30 (antibody, human IgG1, kappa, L234A L235A)
heavy: not shown
light: B12 light
chain: B12 chain
notes: monovalent one-armed huIgG1 PG-LALA; from supernatant; also called P1AE3086
B20: CD28(SA)_variant_31 (antibody, human IgG1, kappa, L234A L235A)
heavy: not shown
light: not shown
chain: B12 chain
notes: monovalent one-armed huIgG1 PG-LALA; from supernatant; also called P1AE3087
B21: CD28(SA)_variant_27 (antibody, human IgG1, kappa, L234A L235A)
heavy: not shown
light: not shown
chain: B12 chain
notes: monovalent one-armed huIgG1 PG-LALA; from supernatant; also called P1AE3083
B22: CD28(SA)_variant_26 (antibody, human IgG1, kappa, L234A L235A)
heavy: not shown
light: not shown
chain: B12 chain
notes: monovalent one-armed huIgG1 PG-LALA; from supernatant; also called P1AE3082
B23: CD28(SA)_variant_25 (antibody, human IgG1, kappa, L234A L235A)
heavy: not shown
light: not shown
chain: B12 chain
notes: monovalent one-armed huIgG1 PG-LALA; from supernatant; also called P1AE3081

Substitutions are numbered along the chain they refer to.

For one test, the target named is T1, N(A2B2)A-avi-His. In words: SPR, ProteOn, antigen on NLC chip, purified Fab as analyte.
On to B1, for which the Kd is 2.3 nM, the off-rate constant (koff) is 0.000248 s⁻¹ and the kon is 108000 M⁻¹ s⁻¹.

For a further test, the target named is T2, Hu N(A2-B2)A-avi-His. Put plainly: SPR, Biacore T200, antigen amine-coupled on CM5, Fab as analyte.
The molecule B2 showed a dissociation constant (Kd) of 1.7 nM.

Regarding B3, the Kd turned out to be 2.92 nM.

Molecule B4 registered a Kd of 7.58 nM.

In turn, B5 gave a Kd of 1.25 nM.

B6 returned a Kd of 2.64 nM.

Regarding B7, the Kd turned out to be 7.62 nM.

In turn, B8 displayed an equilibrium dissociation constant (Kd) of 1.47 nM.

For the molecule B9, binding was characterised by a dissociation constant (Kd) of 1.83 nM.

A further test deals with T3, biotinylated huCD28-Fc (dimeric CD28-Fc construct with a monovalent biotinylated avi-tag) (human, UniProt P10747 19-152, biotinylated at the C-terminal avi tag).
T3 construct: not shown: hum IgG1 Fc fragment with hole and PG-LALA mutations; hum IgG1 Fc fragment with knob and PG-LALA mutations
Put plainly: SPR, ProteOn XPR36, huCD28-Fc immobilised, bispecific as analyte.
B10 gave a Kd of 1.2 nM, an off-rate constant (koff) of 0.000324 s⁻¹ and a kon of 271000 M⁻¹ s⁻¹.

In turn, B11 had a Kd of 58 nM, a koff of 0.0098 s⁻¹ and a kon of 169000 M⁻¹ s⁻¹.

The target of a further test is T1, N(A2B2)A-avi-His. In words: SPR off-rate, ProteOn, antigen on NLC chip, Fab in bacterial supernatant.
As to B1, the dissociation rate constant (koff) is 0.00031 s⁻¹.

The next test addresses T4, human CD28 on CHO cells (parental cell line CHO-k1 ATCC #CCL-61, modified to stably overexpress human CD28) (human, UniProt P10747 19-220).
T4 construct: also called hu CD28; CHO-hCD28
In words: flow cytometry on CHO cells stably expressing human CD28, monovalent one-armed IgG from supernatant, MFI (PE). A general note: In flow cytometry, cells or beads pass a laser one at a time.
With B12, the binding result is given as “binds”.

For the molecule B13, the binding result was “binds”.

In the case of B14, the binding result was “binds”.

Turning to B15, the binding result is listed as “binds”.

For B16, the binding result is listed as “binds”.

B17: the binding result was “binds”.

The target of a further test is T4, human CD28 on CHO cells (parental cell …). The description is as above. This is another data set of the same source.
For the molecule B18, the binding result was “binds”.

Take B19: the binding result is given as “binds”.

Consider B20, for which the binding result is on record as “binds”.

As to B21, the binding result is reported as “binds”.

For B22, the binding result is given as “binds”.

On to B23, for which the binding result is “binds”.

Broadly, the Kd is a measure of binding affinity in units of concentration. For orientation: koff means the rate constant with which the complex falls apart. As usually defined, the kon is the second-order rate constant of association.

The values are drawn from US20230416365A1 (Hoffmann-La Roche, published 2023).
